From US20250282879A1 (CILAG GMBH INTERNATIONAL, published 2025) come the findings set out here.

Where a chain is given by its changes, count along the chain named. In names and notes the source's numbering stands.

In assay [1] the target is T1, recombinant human IL-31 protein (Peprotech) (human, UniProt Q6EBC2 24-164).
T1 sequence (looked up): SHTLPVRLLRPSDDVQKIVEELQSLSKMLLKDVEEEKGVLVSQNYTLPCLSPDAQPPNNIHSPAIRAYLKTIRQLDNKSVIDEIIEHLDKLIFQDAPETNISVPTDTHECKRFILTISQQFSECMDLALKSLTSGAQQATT
The experiment in a line: cell-based or functional assay.

The target in assay [2] is T2, human IL-4R on cells (HEK-Blue IL-4/IL-13 cells, human PBMC, human whole blood) (human, UniProt P24394 26-825). As to the kind of experiment: cell-based or functional assay.
The target in assay [3] is T3, recombinant cynomolgus monkey IL-31 (ECD with His Tag, Sino Biological) (cynomolgus monkey).
T3 construct: manufactured on demand by Sino Biological; also called cynomolgus IL-31-His; cyno IL-31
As to the kind of experiment: SPR, Morrison captured on immobilized human IL-4R-Fc, IL-31 analyte, single-cycle. As for the experimental part: (§1) Binding kinetics (including affinity) of the bispecific Morrison-H (PRO2198, PRO2199) and Morrison-L (PRO2206, PRO2207) molecules to recombinant human IL-31 protein (Peprotech) were determined by SPR analysis on a T200 device (Biacore, Cytiva). In this SPR experiment, Morrison antibodies were injected over a carboxylmethylated dextran surface (CM5 sensorchip; Biacore, Cytiva) immobilized with human recombinant IL-4R protein (ECD with Fc Tag, R&D Systems) and a titration series of human IL-31 was injected as analyte. […] The calculation of the kinetics and the apparent dissociation equilibrium constant (KD) as well as the measurement for the quality of curve fitting were done as described above for IL-4R. The binding level was calculated as the maximum stability binding achieved normalized to the theoretical Rmax. Cross-reactivity to cynomolgus monkey IL-31 was measured using the same setup as for the analysis of human IL-31 affinities, with the difference that recombinant cynomolgus monkey IL-31 (ECD with His Tag, Sino Biological) protein was used as analytes instead of human IL-31.
(§2) After having shown a stable capture of Morrison antibodies via recombinant human IL-4R protein, IL-31 was injected as analyte and the kinetics of the binding of IL-31 to captured Morrison molecules were calculated.
Background: Surface plasmon resonance follows binding to a sensor surface in real time, without labels.

Assay [4] addresses T1, recombinant human IL-31 protein …. The assay is described as above. As for the experimental part:
as §1, §2

Assay [5] deals with T4, human IL-4R on transfected HEK293T cells (human, UniProt P24394 26-825).
T4 construct: whole, on cells; also called human IL-4R-expressing HEK293T cells; not shown: V5 Tag fused to the N-terminus of the expression construct
The experiment in a line: flow cytometry, transfected HEK293T cells. An excerpt:
(§3) To test binding of the Morrison-H and Morrison-L antibodies PRO2198, PRO2199, PRO2206 and PRO2207 to human or cynomolgus IL-4R-expressing HEK293T cells, HEK293T cells were transfected with human and cynomolgus IL-4R plasmids and mock plasmid using Lipofectamine3000. Binding of an antibody targeting V5 Tag, which is fused to the N-terminus of human and cynomolgus IL-4R expression constructs, would confirm successful expression of both targets and was thus used as a positive control for plasma membranous binding. The Morrison-H molecule PRO2077 was used as negative control for cynomolgus IL-4R binding since this molecule had not shown any cross-reactivity to cynomolgus IL-4R (see section 5.3.).
(§4) 50,000 transfected HEK293T cells per well were seeded in a 96-well plate. 5-fold serial dilutions of the Morrison-H and Morrison-L antibodies PRO2198, PRO2199, PRO2206 and PRO2207 and of the control molecule PRO2077, which is not cross-reactive to cynomolgus IL-4R, were added at concentrations ranging from 5,000 to 0.32 ng/ml to the plates and incubated for 60 min at 4° C. on a shaker. Supernatants were removed and detection reagent was added for flow cytometry analysis. The geometric mean of the APC fluorescence intensity of single cells was calculated.

The target in assay [6] is T5, cynomolgus IL-4R on transfected HEK293T cells (cynomolgus monkey, UniProt A0A2K5V580 33-832).
T5 construct: whole, on cells; also called cynomolgus IL-4R-expressing HEK293T cells; not shown: V5 Tag fused to the N-terminus of the expression construct
The experiment in a line: flow cytometry, transfected HEK293T cells.
Excerpt: as §3, §4

Assay [7] has as its target T2, human IL-4R on cells (HEK-Blue …). The experiment in a line: cell-based or functional assay. The source holds these as a separate data set.
The target is the same in assay [8]. As to the kind of experiment: cell-based or functional assay. This is another data set of the same source.
Assay [9] addresses T6, recombinant human IL-4R protein (ECD with His Tag, Sino Biological) (human, UniProt P24394 26-232).
T6 construct: extracellular domain; bought; also called human IL-4R ECD; not shown: His Tag
As to the kind of experiment: SPR, Morrison captured via anti-human IgG-Fc, IL-4R ECD-His analyte. As for the experimental part:
(§5) Binding kinetics (including affinity) of the bispecific Morrison-H (PRO2198, PRO2199) and Morrison-L (PRO2206, PRO2207) molecules to recombinant human IL-4R protein (ECD with His Tag, Sino Biological) were determined by SPR analysis on a T200 device (Biacore, Cytiva). In this SPR experiment, Morrison molecules were captured via an anti-human IgG-Fc antibody (Human Antibody Capture Kit; Biacore, Cytiva) covalently immobilized to a carboxylmethylated dextran surface (CM5 sensorchip; Biacore, Cytiva) and a titration series of human IL-4R ECD was injected as analyte. After each analyte injection cycle, the sensor chip was regenerated (MgCl₂), and new Morrison antibody was subsequently re-captured. […] The apparent dissociation (kd) and association (kₐ) rate constants and the apparent dissociation equilibrium constant (KD) were calculated with the Biacore analysis software (Biacore Evaluation software Version 3.2, Cytiva) using one-to-one Langmuir binding model and quality of the fits was monitored based on Chi2 and U-value, which are measures for the quality of the curve fitting. The binding level was calculated as the maximum stability binding achieved normalized to the theoretical Rmax. Cross-reactivity to cynomolgus monkey IL-4R was measured using the same setup as for the analysis of human IL-4R kinetics, with the difference that recombinant cynomolgus monkey IL-4R (ECD with His-tag, Acro Biosystems) protein was used as analyte instead of human IL-4R.

Assay [10] deals with T7, recombinant cynomolgus monkey IL-4R (ECD with His-tag, Acro Biosystems) (cynomolgus monkey, UniProt A0A2K5V556 26-232).
T7 construct: bought; also called cynomolgus IL-4R
The description is as above. How it is done:
as §5

The next assay concerns the target T8, human IL-31-His (human, UniProt Q6EBC2 24-164).
T8 construct: captured via an anti-His tag antibody; also called human IL-31 (scFv SPR); not shown: His tag
T8 sequence (looked up): T1 sequence (looked up)
As to the kind of experiment: SPR, IL-31-His captured, scFv analyte (30 and 10 nM). How it is done: Affinity of the two humanized scFvs to human and cynomolgus IL-31 was determined by SPR analysis on a T200 device (Biacore, GE Healthcare). Cynomolgus IL-31 was manufactured on demand by Sino Biological since it was not available commercially. Human and cynomolgus IL-31-His was captured via an anti-His tag antibody coupled to a carboxylmethylated dextran surface and the scFvs were injected as analyte. After each analyte injection cycle the sensor chip was regenerated and new antigen was captured. The scFvs were measured using a dose response multi-cycle kinetic assay in a high-throughput mode with two concentrations (30 and 10 nM) diluted in running buffer. Obtained sensorgrams were fitted using a 1:1 binding model.
Affinity of PRO1643 and of the optimized anti-IL-31 scFvs to human IL-31 was determined by SPR analysis on a T200 device (Biacore, GE Healthcare), as described above in section 2.2.2. The scFvs were measured using a dose response multi-cycle kinetic assay in a high-throughput mode with two concentrations (30 and 10 nM) diluted in running buffer. Obtained sensorgrams were fitted using a 1:1 binding model.

T7 sequence (A0A2K5V556 entry or part of it limits assumed): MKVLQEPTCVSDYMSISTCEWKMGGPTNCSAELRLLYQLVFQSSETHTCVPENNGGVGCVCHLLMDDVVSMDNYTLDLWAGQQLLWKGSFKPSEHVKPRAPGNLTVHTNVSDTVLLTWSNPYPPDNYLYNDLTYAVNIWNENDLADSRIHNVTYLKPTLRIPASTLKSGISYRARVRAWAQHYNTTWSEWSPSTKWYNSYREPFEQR
T5 sequence (A0A2K5V580 entry or part of it): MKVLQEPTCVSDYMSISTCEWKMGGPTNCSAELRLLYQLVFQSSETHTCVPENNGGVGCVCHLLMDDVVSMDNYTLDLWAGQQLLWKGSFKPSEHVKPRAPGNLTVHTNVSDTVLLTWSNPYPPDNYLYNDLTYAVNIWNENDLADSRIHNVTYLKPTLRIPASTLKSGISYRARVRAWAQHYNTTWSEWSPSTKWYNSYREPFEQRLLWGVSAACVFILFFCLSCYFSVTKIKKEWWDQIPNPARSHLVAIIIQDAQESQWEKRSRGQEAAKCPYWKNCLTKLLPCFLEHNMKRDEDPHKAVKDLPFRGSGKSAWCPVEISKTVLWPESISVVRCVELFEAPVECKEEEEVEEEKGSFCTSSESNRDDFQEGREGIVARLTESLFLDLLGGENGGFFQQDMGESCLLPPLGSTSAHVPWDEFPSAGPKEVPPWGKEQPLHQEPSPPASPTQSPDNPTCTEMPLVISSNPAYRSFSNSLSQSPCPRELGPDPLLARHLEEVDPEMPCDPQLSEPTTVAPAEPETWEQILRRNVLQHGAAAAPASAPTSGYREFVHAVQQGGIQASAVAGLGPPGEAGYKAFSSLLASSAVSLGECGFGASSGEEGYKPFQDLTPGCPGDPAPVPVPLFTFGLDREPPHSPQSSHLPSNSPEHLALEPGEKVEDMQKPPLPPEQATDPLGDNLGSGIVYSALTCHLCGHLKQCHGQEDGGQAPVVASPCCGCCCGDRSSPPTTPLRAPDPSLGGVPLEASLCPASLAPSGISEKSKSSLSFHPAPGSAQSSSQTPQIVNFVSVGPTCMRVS

B1: PRO2206 (bispecific antibody, human IgG4 S228P, kappa)
light: DIQMTQSPSSLSARVGDRVTITCQASEDIESYLAWYQQKPGKAPKLLIYRASTLAYGVPSRFSGSGSGRDFTLTISSLQPEDFATYYCLGSSYSTGSNIFGQGTKVEIKRTVAAPSVFIFPPSDEQLKSGTASVVCLLNNFYPREAKVQWKVDNALQSGNSQESVTEQDSKDSTYSLSSTLTLSKADYEKHKVYACEVTHQGLSSPVTKSFNRGECGGGGSGGGGSAFQLTQSPSSLSASVGDRVTITCQASQSIDSWLAWYQQKPGKPPKLLIYQASKLASGVPSRFSGSGSGTDYTLTISSLQPEDFATYYCQTYYGGGHIGWGFGTGTKVTVLGGGGGSGGGGSGGGGSGGGGSQSQLVESGGGRVQPGGSLRLSCAASGFSFSANYWICWVRQAPGKGLEWIVCIYIGSRADTYYAPWAKGRFTISKDNSKNTVYLQMNSLRAEDTATYFCARFSSGIYDLDRFFLWGQGTQVTVSS
heavy: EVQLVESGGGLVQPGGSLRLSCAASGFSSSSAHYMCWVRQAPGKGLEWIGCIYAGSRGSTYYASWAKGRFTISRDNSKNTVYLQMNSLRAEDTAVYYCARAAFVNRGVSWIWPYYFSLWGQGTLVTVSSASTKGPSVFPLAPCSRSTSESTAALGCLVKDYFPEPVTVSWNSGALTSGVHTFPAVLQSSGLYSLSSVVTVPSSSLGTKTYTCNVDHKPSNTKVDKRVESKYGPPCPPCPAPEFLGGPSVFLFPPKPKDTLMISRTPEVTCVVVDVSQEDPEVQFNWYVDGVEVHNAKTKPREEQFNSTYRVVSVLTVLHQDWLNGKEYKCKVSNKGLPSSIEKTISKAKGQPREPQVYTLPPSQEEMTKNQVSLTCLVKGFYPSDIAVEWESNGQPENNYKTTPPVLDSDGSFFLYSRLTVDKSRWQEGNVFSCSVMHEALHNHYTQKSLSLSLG
notes: IgG4 (S228P) Morrison-L, anti-IL-31 scFv on the C-terminus of the light chain; also called Morrison-L; MorrL
For the molecule B1, the “IC50 (single analysis), human IL-31-induced signaling, IL-31RA/OSMR dimerization assay” value in assay [1] is 0.23 nM. Besides, in assay [2], the “IC50, IL-4-induced CD23 expression, memory B cells” value came out at 4.34 nM; the “IC50, IL-4-induced CD23 expression, monocytes (blood donor 2)” value was 0.111 nM; the “IC50, IL-4-induced CD23 expression, naive B cells” value worked out at 1.48 nM. Further, in assay [3], the Kd is 0.169 nM, the koff was less than 1e-05 s⁻¹ and the kon worked out at 59300 M⁻¹ s⁻¹. Moreover, in [4], the Kd stood at 0.107 nM, the koff amounted to 2.36e-05 s⁻¹ and the kon came out at 220000 M⁻¹ s⁻¹. This molecule came in with an EC50 in [5] of 0.83 nM. In [6], this molecule showed an EC50 of 0.9 nM. In assay [7], the “IC50 (single analysis), human IL-4-induced signaling, stat-6 reporter gene assay” value was found to be 0.0118 nM. Also, the “IC50 (single analysis), human IL-13-induced signaling, stat-6 reporter gene assay” value in assay [8] is 0.0295 nM. In assay [9], the Kd amounted to 0.0477 nM, the koff turned out to be 1.95e-05 s⁻¹ and the association rate constant (kon) was determined as 409000 M⁻¹ s⁻¹. Further, in [10], the Kd was 0.209 nM, the koff was determined as 2.42e-05 s⁻¹ and the on-rate constant (kon) was determined as 116000 M⁻¹ s⁻¹.

B2: PRO2207 (bispecific antibody, human IgG4 S228P, kappa)
light: B1 light with R14S, R69T
heavy: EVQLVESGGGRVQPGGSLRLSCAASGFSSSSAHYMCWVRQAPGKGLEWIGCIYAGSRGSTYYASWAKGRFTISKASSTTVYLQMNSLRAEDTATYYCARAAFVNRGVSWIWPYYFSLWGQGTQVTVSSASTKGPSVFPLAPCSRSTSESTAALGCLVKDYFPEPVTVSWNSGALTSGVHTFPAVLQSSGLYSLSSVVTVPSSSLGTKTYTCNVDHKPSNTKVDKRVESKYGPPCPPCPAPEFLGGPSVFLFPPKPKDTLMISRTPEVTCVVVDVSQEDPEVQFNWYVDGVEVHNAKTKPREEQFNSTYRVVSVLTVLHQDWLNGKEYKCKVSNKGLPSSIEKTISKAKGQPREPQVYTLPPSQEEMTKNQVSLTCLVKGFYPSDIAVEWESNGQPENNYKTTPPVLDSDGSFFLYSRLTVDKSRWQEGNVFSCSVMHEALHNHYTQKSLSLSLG
notes: IgG4 (S228P) Morrison-L; also called Morrison-L; MorrL
As to B2, in assay [1], the “IC50 (single analysis), human IL-31-induced signaling, IL-31RA/OSMR dimerization assay” value was 0.215 nM. In assay [2], the “IC50, IL-4-induced CD23 expression, memory B cells” value is 1.58 nM; the “IC50, IL-4-induced CD23 expression, monocytes (blood donor 3)” value is approximately 0.0545 nM; the “IC50, IL-4-induced CD23 expression, naive B cells” value worked out at 1.04 nM. Also, in assay [3], the Kd was determined as 0.164 nM, the koff is less than 1e-05 s⁻¹ and the kon turned out to be 60900 M⁻¹ s⁻¹. In assay [4], the Kd was 0.152 nM, the koff came to 2.47e-05 s⁻¹ and the kon was found to be 163000 M⁻¹ s⁻¹. The molecule further displayed an EC50 in assay [5] of 0.6 nM. Also, the 50% effective concentration (EC50) in assay [6] turned out to be 0.65 nM. In [7], the “IC50 (single analysis), human IL-4-induced signaling, stat-6 reporter gene assay” value was determined as 0.0094 nM. In assay [8], the “IC50 (single analysis), human IL-13-induced signaling, stat-6 reporter gene assay” value came to 0.0126 nM. Besides, in assay [9], the Kd amounted to 0.189 nM, the dissociation rate constant (koff) worked out at 4.61e-05 s⁻¹ and the kon came to 244000 M⁻¹ s⁻¹. In assay [10], the Kd was determined as 0.011 nM, the koff amounted to 2.77e-05 s⁻¹ and the kon amounted to 2.53e+06 M⁻¹ s⁻¹.

B3: PRO1900 (scFv, V domains shown)
VH: QSQLVESGGGRVQPGGSLRLSCAASGFSFSANYWICWVRQAPGKGLEWIVCIYIGSRADTYYAPWAKGRFTISKDNSKNTVYLQMNSLRAEDTATYFCARFSSGIYDLDRFFLWGQGTQVTVSS
V domain: AFQLTQSPSSLSASVGDRVTITCQASQSIDSWLAWYQQKPGKPPKLLIYQASKLASGVPSRFSGSGSGTDYTLTISSLQPEDFATYYCQTYYGGGHIGWGFGTGTKVTV
notes: anti-IL-31 scFv; VL entry ends with LCDR3 (no FR4); also called 50-09-D07-sc04
In the assay with human IL-31-His, B3 came in with a Kd of 0.907 nM, a koff of 0.000599 s⁻¹ and a kon of 661000 M⁻¹ s⁻¹.

B4: PRO1903 (scFv, V domains shown)
VH: B3 VH with R11L, T95V, Q119L
V domain: B3 V domain with D30E
notes: anti-IL-31 scFv (VL D32E against sc03); Printed VL entry has no FR4; also called 50-09-D07-sc07
For the molecule B4, in the assay with human IL-31-His, the Kd is 1.22 nM, the dissociation rate constant (koff) amounted to 0.000638 s⁻¹ and the kon turned out to be 524000 M⁻¹ s⁻¹.

In general, Kd refers to a measure of binding affinity in units of concentration. For orientation: koff means the first-order rate constant of dissociation. Broadly, the kon is the rate constant with which the complex forms. Usually EC50 stands for the concentration giving half of the maximal effect.
